Test results as given in patent publication US20030077740A1, “Presenilin/Crk binding polypeptides (PCBP) and methods of use thereof” (priority 2001, published 2003).

Experiments:
[1] = biological target: T1, large hydrophilic loop of PS1 (Homo sapiens, UniProt P49768); experiment: co-immunoprecipitation in 293T cells, PS1 loop; assay type: binding; details: immunoprecipitation with anti-TAG, 48 hrs after transfection, PS1-FLAG loop
T1 construct: and a large hydrophilic loop (amino acids 263-407); expressed in transfected cells; host or cells: 293T human kidney cells, pCIS2 expression vector
Experimental: (§1) To confirm the yeast two-hybrid data, the interaction between PBP and PSs was assayed in mammalian cells by immunoprecipitation. Human kidney 293-T cells, and monkey kidney COS-7 cells were cultured in Dulbecco's modified Eagle's medium supplemented with 10% fetal calf serum at 37° C. in a 10% CO2 atmosphere. A nine-amino acid TAG epitope ([…]) (SEQ ID NO:6) was incorporated in-frame at the 3′ end of the PBP cDNA (PBP-TAG), and an eight amino acid FLAG epitope ([…]) (SEQ ID NO:7) was attached in frame at the 5′ end of the large hydrophilic loop of PS1 cDNA and at the 3′ end of full length PS1 cDNA as described previously (Kimura, H., Proc. Natl. Acad. Sci. (USA), 90:2165-2169 (1993)). The resulting fragments were inserted into the pCIS2 expression vector (Genentech, San Francisco, Calif.) for transient or constitutive expression. […]
(§2) For immunoprecipitation of the large hydrophilic loop of PSs or Crk with PBP, cells were lysed in RIPA buffer (100 mM NaCl, 0.5% NP-40, 0.5% DOC, 0.1% SDS, 50 mM Tris, pH 7.5, 1 mM PMSF and 1 μg/ml aprotinin, 1 μg/l leupeptin) on ice for 30 min. […] The bound antibodies were detected by the ECL-plus chemiluminescence system (Amersham, Arlington Heights, Ill.).

[2] = test system: large hydrophilic loop of PS2; experiment: co-immunoprecipitation in 293T cells, PS2 loop; assay type: binding; details: immunoprecipitation with anti-TAG, 48 hrs after transfection
Experimental: as §1, §2

full length PS1 [3] = biological target: T2, full length PS1 (Homo sapiens, UniProt P49768, L392V); experiment: co-immunoprecipitation with full length PS1 in 293T cell lines; assay type: binding; details: PS1 expressing the L392V mutation, overexpressing cells
T2 construct: three different clonal 293T cell lines which stably express full length PS1 were transfected with PBP-TAG; expressed in transfected cells; host or cells: clonal 293T cell lines stably expressing PS1
Excerpt: (§3) To examine the interaction of PBP with the fill length PS molecule, three different clonal 293T cell lines which stably express full length PS1 were transfected with PBP-TAG and the ability of PS1 to bind to PBP assayed by immunoprecipitation. Forty-eight hrs after transfection, cells were lysed and proteins immunoprecipitated with 12CA5 (anti-TAG), which recognizes PBP-TAG (anti-PBP-TAG). The immunoprecipitates were subjected to polyacrylamide gel electrophoresis, transferred to Immobilon-P, and reacted with anti-TAG or an anti-serum against PS1.
as §2, with “min. For immunoprecipitation of full length PS1 with PBP, RIPA buffer with 1% NP40 but without DOC and SDS was used. Cell lysates were spun for 10 min at 10,000 g. The resulting supernatants were preadsorbed with anti-mouse IgG-agarose (Sigma) for 4 hours at 4° C. After centrifugation, antibody 12CA5 and anti-mouse IgG-agarose were added at 4° C. overnight.” for “min.”, “Ill.). […]” for “Ill.).”

full length PS1 [4] = biological target: T3, full length PS1 (Homo sapiens, UniProt P49768); experiment: as above; assay type: binding; details: co-immunoprecipitation, 293T lines stably expressing PS1
T3 construct: three different clonal 293T cell lines which stably express full length PS1 were transfected with PBP-TAG; expressed in transfected cells; host or cells: clonal 293T cell lines stably expressing PS1
Excerpt: as §3
as §2, with “min. For immunoprecipitation of full length PS1 with PBP, RIPA buffer with 1% NP40 but without DOC and SDS was used. Cell lysates were spun for 10 min at 10,000 g. The resulting supernatants were preadsorbed with anti-mouse IgG-agarose (Sigma) for 4 hours at 4° C. After centrifugation, antibody 12CA5 and anti-mouse IgG-agarose were added at 4° C. overnight.” for “min.”, “Ill.). […]” for “Ill.).”

B103 (APP695) cells = experiment: intracellular APP level and pulse-chase turnover in B103 cells; assay type: cell-based, rat

PBP: novel 2027 amino acid protein, 233 kD, binds presenilins and Crk; expressed from cDNA in cells (KYGVVICSFRGSVPQGLVLEIGETVQILEKCEGWYRGVSTKKPNVKGLFPANYIHLK; listed as Mus musculus)
interaction with PS1 [1]: interacts
interaction with large hydrophilic loop of PS2 [2]: interacts
immune precipitation of PS1 L392V with PBP (full length PS1 [3]): immune precipitate with PBP
interaction with full length PS1 (full length PS1 [4]): interacts
intracellular APP protein level, pulse-chase (B103 (APP695) cells; 10 min 35S-methionine label, chase 15-60 min): rapidly decreased
full length APP, intracellular level (B103 (APP695) cells; APP695/PBP relative to APP695 cells, antibodies 6E10 and 22C11): reduced
